Experimental findings from CN107043422A (CHENGDU KANGHONG BIOLOGICAL TECH CO LTD, dated 2017) are described below.

Assay [1] concerns the target T1, 大鼠血清中的补体因子D (rat serum complement factor D) (大鼠 (rat), UniProt P32038 26-263).
T1 sequence (looked up): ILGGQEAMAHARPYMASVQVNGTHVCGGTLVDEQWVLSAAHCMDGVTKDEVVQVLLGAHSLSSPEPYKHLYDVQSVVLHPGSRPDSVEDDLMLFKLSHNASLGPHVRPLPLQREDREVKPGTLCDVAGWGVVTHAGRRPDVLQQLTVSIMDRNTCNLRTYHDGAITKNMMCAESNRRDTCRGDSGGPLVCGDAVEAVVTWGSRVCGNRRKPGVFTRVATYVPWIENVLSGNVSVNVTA
Put plainly: cell-based or functional assay.

The target of a further assay is T2, 人CFD蛋白 (人 (human), UniProt P00746 26-253, limits assumed).
T2 construct: also called human complement factor D
T2 sequence (P00746 26-253 limits assumed): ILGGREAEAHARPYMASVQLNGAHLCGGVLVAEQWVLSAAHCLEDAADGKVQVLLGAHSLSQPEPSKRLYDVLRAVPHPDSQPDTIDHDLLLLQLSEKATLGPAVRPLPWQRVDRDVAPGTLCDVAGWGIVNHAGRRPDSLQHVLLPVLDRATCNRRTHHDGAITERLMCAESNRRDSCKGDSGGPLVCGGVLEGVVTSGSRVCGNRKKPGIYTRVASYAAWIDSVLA
The assay is described as follows: BLI (Octet QK), human CFD on Ni-NTA biosensor, KH-A at 125 nM in rabbit vitreous fluid.

For assay [2], the target named is T3, 猪CFD (猪 (pig), UniProt P51779 27-259, limits assumed).
T3 construct: Transiently expressed in DG44 cells; The culture supernatant was used unpurified in the Octet assay; also called pig CFD; 猪(GeneID:396877)
T3 sequence (P51779 other isoform, or with tags, fused parts or gaps limits assumed): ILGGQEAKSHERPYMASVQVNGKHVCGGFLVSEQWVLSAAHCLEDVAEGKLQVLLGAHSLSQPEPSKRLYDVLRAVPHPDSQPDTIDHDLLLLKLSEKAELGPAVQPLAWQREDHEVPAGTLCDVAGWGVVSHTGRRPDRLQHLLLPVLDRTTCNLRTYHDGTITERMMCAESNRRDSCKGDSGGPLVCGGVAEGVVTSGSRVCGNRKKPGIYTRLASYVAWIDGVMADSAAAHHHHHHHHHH
The assay is described as follows: BLI (Octet QK), antibody on Protein A biosensor, CFD transfection supernatant in solution. For orientation: BLI is a label-free optical method that tracks binding on a fibre tip over time.

The target of assay [3] is T3, 猪CFD. Put plainly: BLI (Octet QK), His-tagged CFD supernatant on Ni-NTA biosensor, Fab at 10 μg/ml.

B1: KH-A (antibody, human IgG4 S228P, kappa, V domains shown)
VH: QVQLVQSGPELKKPGASVKVSCKASGYTFTNYGMNWVRQAPGQGLEWMGWINTYTGETTYADDFKGRFVFSLDTSVSTAYLQISSLKAEDTAVYYCEREGGVNYWGQGTLVTVSS
VL: DIQVTQSPSSLSASVGDRVTITCITSTDIDDDMNWYQQKPGKVPKLLISGGATLRPGVPSRFSGSGSGTDFTLTISSLQPEDVATYYCLQSDSLPYTFGQGTKLEIKR
notes: Full-length humanized anti-complement factor D antibody expressed in CHO-S cells; also called 抗体KH-A; 全长抗体KH-A
As to B1, the “IC50, 全长抗体抑制大鼠血清致兔红细胞溶血 (ACH50法, 补体旁路途径活性)” value in assay [1] amounted to 3860 µg/mL. For the same molecule, the binding result with 人CFD蛋白 and with 猪CFD [2] was “binds” in each case.

B2: KH021 (Fab, V domains shown)
VH: QVQLVQSGPELKKPGASVKVSCKASGYTFTNYGMNWVRQAPGQGLEWMGWINTYTGETTYADDFKGRFVFSLDTSVSTAYLQISSLKAEDTAVYYCEREGGVNSWGQGTLVTVSS
VL: DIQVTQSPSSLSASVGDRVTITCITSTDIDDDVNWYQQKPGKVPKLLISGGNTLRPGVPSRFSGSGSGTDFTLTISSLQPEDVATYYCMQSDSLPYTFGQGTKLEIKR
notes: Fab expressed in the E. coli periplasm; also called Fab抗体KH021
For the molecule B2, the binding result with 猪CFD [3] is given as “binds”.

B3: KH-F (antibody, human IgG4 S228P, kappa, V domains shown)
VH: QVQLVQSGPELKKPGASVKVSCKASGYTFTNYGMNWVRQAPGQGLEWMGWINTYTGETTYADDFKGRFVFSLDTSVSTAYLQISSLKAEDTAVYYCEREGGVNSWGQGTLVTVSS
VL: DIQVTQSPSSLSASVGDRVTITCITSTDIDDDVNWYQQKPGKVPKLLISGGNTLRPGVPSRFSGSGSGTDFTLTISSLQPEDVATYYCMQSDSLPYTFGQGTKLEIKR
notes: also called 全长抗体KH-F
B3: the “IC50, 全长抗体抑制大鼠血清致兔红细胞溶血 (ACH50法, 补体旁路途径活性)” value in assay [1] stood at 3960 µg/mL. Also, the binding result with 猪CFD [2] is given as “binds”.

B4: KH027 (Fab, V domains shown)
VH: QVQLVQSGPELKKPGASVKVSCKASGYTFTNYGMNWVRQAPGQGLEWMGWINTYTGETTYADDFKGRFVFSLDTSVSTAYLQISSLKAEDTAVYYCEREGGVNYWGQGTLVTVSS
VL: DIQVTQSPSSLSASVGDRVTITCITSTDIDDDMNWYQQKPGKVPKLLISGGATLRPGVPSRFSGSGSGTDFTLTISSLQPEDVATYYCLQSDSLPYTFGQGTKLEIKR
notes: Fab expressed in the E. coli periplasm; also called Fab抗体KH027
Take B4: the binding result in the assay with 猪CFD [3] is reported as “binds”.
